Values belong to the binder of their own block, whether it stands above or below them. Ends that are not written are not given here.
Assays:
[1] = biological target: T1, recombinant human Zn2+-chelated insulin (Monotard) (human, UniProt P01308 90-110; P01308 25-54); test: ELISA, therapeutic coated on Nunc Immobilizer plate, concentration series of tPA, one-site binding fit
T1 construct: also called zinc-insulin; zinc-chelated insulin
Procedure: (§1) Plates were washed twice with Tris buffered saline pH 7.2 containing 0.1% Tween20 (TBST) and blocked with PBS containing 1% Tween20 for 1 hour at room temperature. […] Plates were washed five times with TBST and incubated with peroxidase labeled anti-mouse immunoglobulins (RAMPO; DAKOCytomation, Glostrup, Denmark) diluted 1:3000 in PBST for 30 minutes at room temperature. Plates were washed five times with PBS 0.1% Tween20, and stained with 100 μL/well of tetramethyl-benzidine (TMB) substrate (Biosource Europe, Nivelles, Belgium). The reaction was terminated with 50 μL/well of 2 M H₂SO₄ and substrate conversion was read at 450 nm on a Spectramax340 microplate reader. Curves were fitted with a one-site binding model (GraphPad Prism version 4.02 for Windows, Graphpad Software, Calif., USA) from which Kd and Bmax were determined.

abciximab (ReoPro) [2] = test: as above
Chain of abciximab (ReoPro) (VH, as listed by the source, chain 1 of 2): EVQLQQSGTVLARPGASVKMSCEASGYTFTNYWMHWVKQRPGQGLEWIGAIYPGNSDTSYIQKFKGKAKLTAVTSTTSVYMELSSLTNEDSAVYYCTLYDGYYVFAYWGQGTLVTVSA
Chain of abciximab (ReoPro) (VL, as listed by the source, chain 2 of 2): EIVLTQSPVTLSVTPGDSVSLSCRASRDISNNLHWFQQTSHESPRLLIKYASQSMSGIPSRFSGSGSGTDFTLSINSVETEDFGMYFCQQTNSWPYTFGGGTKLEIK
Procedure: as §1

[3] = biological target: T2, human albumin (Cealb, Sanquin-CLB) (human, UniProt P02768 25-609); test: as above
T2 construct: also called CeaIb
Procedure: as §1

[4] = biological target: T3, rapid acting human insulin analogue (NovoRapid Flexpen) (human, UniProt P01308 90-110; P01308 25-54); test: as above
T3 construct: also called Insulin Aspart
T3 sequence (P01308 90-110 limits assumed, chain 1 of 2): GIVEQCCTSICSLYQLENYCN
T3 sequence (P01308 other isoform, or with tags, fused parts or gaps limits assumed, chain 2 of 2): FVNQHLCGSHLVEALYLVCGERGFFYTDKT
Procedure: as §1

[5] = biological target: T4, human coagulation factor VIII (FVIII) (Aafact) (human, UniProt P00451 20-2351); test: as above
T4 chain 1: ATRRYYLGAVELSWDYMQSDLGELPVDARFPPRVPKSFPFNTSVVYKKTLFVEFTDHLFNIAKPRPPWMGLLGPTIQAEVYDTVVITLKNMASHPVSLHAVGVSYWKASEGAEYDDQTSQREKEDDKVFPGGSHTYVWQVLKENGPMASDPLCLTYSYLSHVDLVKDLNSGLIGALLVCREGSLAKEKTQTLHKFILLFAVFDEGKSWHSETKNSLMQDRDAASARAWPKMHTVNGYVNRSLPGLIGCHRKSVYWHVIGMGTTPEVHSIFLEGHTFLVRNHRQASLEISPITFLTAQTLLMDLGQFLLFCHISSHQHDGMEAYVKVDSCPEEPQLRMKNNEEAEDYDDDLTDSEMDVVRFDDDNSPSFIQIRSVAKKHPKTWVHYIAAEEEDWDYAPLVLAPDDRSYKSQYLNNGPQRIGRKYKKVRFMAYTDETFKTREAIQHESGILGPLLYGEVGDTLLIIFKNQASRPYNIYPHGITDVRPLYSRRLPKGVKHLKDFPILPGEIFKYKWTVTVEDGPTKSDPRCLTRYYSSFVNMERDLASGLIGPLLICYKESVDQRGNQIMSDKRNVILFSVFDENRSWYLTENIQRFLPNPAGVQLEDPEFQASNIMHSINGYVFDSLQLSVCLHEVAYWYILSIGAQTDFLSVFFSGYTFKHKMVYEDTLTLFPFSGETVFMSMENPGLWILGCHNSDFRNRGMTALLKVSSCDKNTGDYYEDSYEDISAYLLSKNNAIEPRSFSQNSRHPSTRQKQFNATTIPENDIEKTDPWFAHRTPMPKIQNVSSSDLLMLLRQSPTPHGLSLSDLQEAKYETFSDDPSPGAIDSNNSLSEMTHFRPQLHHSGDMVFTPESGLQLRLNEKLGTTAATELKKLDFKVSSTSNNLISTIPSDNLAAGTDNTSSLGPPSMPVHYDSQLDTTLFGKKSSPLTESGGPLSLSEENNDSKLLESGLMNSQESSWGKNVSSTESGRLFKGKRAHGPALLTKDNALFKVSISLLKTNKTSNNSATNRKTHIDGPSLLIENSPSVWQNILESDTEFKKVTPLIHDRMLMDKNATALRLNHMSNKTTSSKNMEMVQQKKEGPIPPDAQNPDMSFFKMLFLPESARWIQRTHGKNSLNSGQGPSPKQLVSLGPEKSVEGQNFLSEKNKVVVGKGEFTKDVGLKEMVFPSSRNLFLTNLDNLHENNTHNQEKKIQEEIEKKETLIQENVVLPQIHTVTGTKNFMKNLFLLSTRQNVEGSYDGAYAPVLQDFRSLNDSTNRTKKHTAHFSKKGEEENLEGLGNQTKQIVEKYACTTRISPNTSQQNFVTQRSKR
T4 chain 2: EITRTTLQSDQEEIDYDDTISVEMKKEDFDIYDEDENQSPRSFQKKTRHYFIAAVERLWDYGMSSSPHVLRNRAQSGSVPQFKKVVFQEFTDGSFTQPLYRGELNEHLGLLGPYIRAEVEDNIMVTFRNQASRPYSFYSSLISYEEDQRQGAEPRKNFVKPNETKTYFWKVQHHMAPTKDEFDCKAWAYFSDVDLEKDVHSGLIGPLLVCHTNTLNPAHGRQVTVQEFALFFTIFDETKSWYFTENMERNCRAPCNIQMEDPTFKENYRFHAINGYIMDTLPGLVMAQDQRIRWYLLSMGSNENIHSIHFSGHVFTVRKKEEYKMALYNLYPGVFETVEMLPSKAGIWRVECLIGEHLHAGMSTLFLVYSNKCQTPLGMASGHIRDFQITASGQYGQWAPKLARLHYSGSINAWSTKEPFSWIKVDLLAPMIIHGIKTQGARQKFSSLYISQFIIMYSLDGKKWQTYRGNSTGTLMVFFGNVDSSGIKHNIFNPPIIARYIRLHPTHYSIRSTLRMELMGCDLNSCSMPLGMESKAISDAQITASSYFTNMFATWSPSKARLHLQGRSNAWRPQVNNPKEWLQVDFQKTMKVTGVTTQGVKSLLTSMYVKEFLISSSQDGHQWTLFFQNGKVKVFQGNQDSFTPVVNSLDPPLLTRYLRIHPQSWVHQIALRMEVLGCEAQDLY
Procedure: as §1

[6] = biological target: T1, recombinant human Zn2+-chelated insulin …; test: cell-based or functional assay
[7] = biological target: Etanercept (Enbrel), native; test: cell-based or functional assay
abciximab (ReoPro) [8] = test: cell-based or functional assay
[9] = biological target: T3, rapid acting human insulin analogue …; test: cell-based or functional assay
[10] = biological target: Infliximab (Remicade), human-murine chimeric monoclonal antibody; test: cell-based or functional assay
[11] = biological target: T5, recombinant human β2-glycoprotein I (insect cells) (human, UniProt P02749 20-345); test: SPR (Biacore), tPA F immobilized on CM5 chip
T5 construct: also called recombinant β2GPI; rβ2GPI
T5 sequence (looked up): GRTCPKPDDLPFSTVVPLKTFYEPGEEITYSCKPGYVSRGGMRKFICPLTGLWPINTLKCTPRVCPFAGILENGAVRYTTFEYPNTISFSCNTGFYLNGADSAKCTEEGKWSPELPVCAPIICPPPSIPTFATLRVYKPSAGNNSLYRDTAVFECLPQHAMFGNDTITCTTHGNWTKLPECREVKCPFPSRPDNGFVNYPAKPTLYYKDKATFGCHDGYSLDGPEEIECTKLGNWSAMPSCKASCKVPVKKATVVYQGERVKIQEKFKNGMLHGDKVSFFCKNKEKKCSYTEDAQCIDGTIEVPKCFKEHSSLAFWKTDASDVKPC
Procedure: (§2) A standardized amine coupling procedure was used to couple proteins with F domains to a CM5 chip (Biacore AB, Uppsala, Sweden). First, the dextran surface of the chips was activated by a 35 μl injection with a 1:1 mixture of 0.1 M N-hydroxysuccinimide (NHS) and 0.4 M N-ethyl-N′-(dimethylaminopropyl)carbodiimide (EDC) at a flow rate of 5 μl min.⁻¹. Then, the proteins were covalently coupled to the activated dextran surface. Remaining activated groups in each of the four flow channels were blocked by injection of 35 μl of 1 M ethanolamine hydrochloride pH 8.5. EDC, NHS and ethanolamine hydrochloride were obtained from Biacore. […] The flow rate was 10 μl min.⁻¹, the injection time was 120″. The running buffer during immobilization was 10 mM HEPES pH 7.4, 140 mM NaCl. Buffers were filtrated on a 0.22 μm filter (white GSWP, 47 mm, Millipore) and degassed at room temperature. For subsequent binding experiments, the running buffer was 10 mM HEPES pH 7.4, 140 mM NaCl, 1.5 mM CaCl₂, 10 mM εACA, 0.005% Tween-20. […] After each injection of protein, the chip was regenerated with 0.1 M H₃PO₄ pH 1.0.

[12] = biological target: T5, recombinant human β2-glycoprotein I …; test: SPR (Biacore), HGFA F immobilized on CM5 chip
Procedure: as §2

T1 sequence (P01308 25-54 limits assumed, chain 2 of 2): as the sequence (P01308 other isoform, or with tags, fused parts or gaps limits assumed, chain 2 of 2) above, with D28P counted along it

- Bmax [1]: 0.756 OD450 nm
- Bmax (abciximab (ReoPro) [2]): 0.533 OD450 nm
- Bmax [3]: 1.23 OD450 nm
- Bmax [4]: 3.62 OD450 nm
- Bmax [5]: 0.54 OD450 nm
- tPA activation, Max. Activation (%) (tPA-dependent plasminogen activation, % of standardized positive control) [6]: 17.4%
- tPA activation, Max. Activation (%) (tPA-dependent plasminogen activation, % of standardized positive control) [7]: 0%
- tPA activation, Max. Activation (%) (tPA-dependent plasminogen activation, % of standardized positive control) (abciximab (ReoPro) [8]): 0%
- tPA activation, Max. Activation (%) (tPA-dependent plasminogen activation, % of standardized positive control) [9]: 70.9%
- tPA activation, Max. Activation (%) (tPA-dependent plasminogen activation, % of standardized positive control) [10]: 0%
B1: tissue-type plasminogen activator (tPA) (enzyme, human, UniProt P00750 36-562, looked up)
chain: SYQVICRDEKTQMIYQQHQSWLRPVLRSNRVEYCWCNSGRAQCHSVPVKSCSEPRCFNGGTCQQALYFSDFVCQCPEGFAGKCCEIDTRATCYEDQGISYRGTWSTAESGAECTNWNSSALAQKPYSGRRPDAIRLGLGNHNYCRNPDRDSKPWCYVFKAGKYSSEFCSTPACSEGNSDCYFGNGSAYRGTHSLTESGASCLPWNSMILIGKVYTAQNPSAQALGLGKHNYCRNPDGDAKPWCHVLKNRRLTWEYCDVPSCSTCGLRQYSQPQFRIKGGLFADIASHPWQAAIFAKHRRSPGERFLCGGILISSCWILSAAHCFQERFPPHHLTVILGRTYRVVPGEEEQKFEVEKYIVHKEFDDDTYDNDIALLQLKSDSSRCAQESSVVRTVCLPPADLQLPDWTECELSGYGKHEALSPFYSERLKEAHVRLYPSSRCTSQHLLNRTVTDNMLCAGDTRSGGPQANLHDACQGDSGGPLVCLNDGRMTLVGIISWGLGCGQKDVPGVYTKVTNYLDWIRDNMRP
notes: Full-length commercial tPA; also called Actilyse; Alteplase

- binding result [11]: no binding (tested: 0-300 nM)
B2: chemically synthesized tPA F domain (other, human)
chain: SYQVICRDEKTQMIYQQHQSWLRPVLRSNRVEYCWCNSGRAQCHSVPVKSK
modifications: ends and bridges not checked; also: C-terminal Lys acetylated or biotinylated, not given here which
notes: domain: F domain; Made by native chemical ligation; immobilized on the second Biacore chip

- binding result [12]: no binding (tested: 0-300 nM)
B3: chemically synthesized HGFA F domain (other)
chain: EKCFDETRYEYLEGGDRWARVRQGHVEQCECFGGRTWCEGTK
modifications: carboxy-terminal acetylated lysine residue
notes: domain: F domain; Immobilized on the second Biacore chip

— US20080220446A1 (published 2008)
